Source: US20170260258A1

What was measured:
[1] = target: GST-pre-S1 (1st to 56th amino acids) protein (hepatitis B virus) [GST: P08515]; experiment: BLI (Octet Red), antibody captured on anti-human Fc tip, GST-pre-S1 in solution
[2] = target: GST-pre-S1 (1st to 56th amino acids) protein (hepatitis B virus) [GST: P08515]; experiment: competitive ELISA and BLI (Octet Red)

Chain of GST-pre-S1 (1st to 56th amino acids) protein (hepatitis B virus) [GST: P08515] (P08515 whole entry): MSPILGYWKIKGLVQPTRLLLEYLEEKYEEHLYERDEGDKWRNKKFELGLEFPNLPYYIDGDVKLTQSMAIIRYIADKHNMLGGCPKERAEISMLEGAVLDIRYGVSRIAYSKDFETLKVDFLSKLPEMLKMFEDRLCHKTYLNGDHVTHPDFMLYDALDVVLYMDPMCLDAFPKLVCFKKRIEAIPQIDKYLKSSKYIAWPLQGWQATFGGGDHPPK

B1: humanized antibody HzKR127-3.1 (antibody, V domains shown)
VH: QVQLQQSGAEVKKPGASVKVSCKASGYTFTSSWMNWVRQAPGQGLEWMGRIYPGDGDTNYAQKFQGRVTMTADKSTSTVYMELSSLRSEDTAVYYCAREYAEAYWGQGTLVTVSS
VL: DIVMTQTPLSLSVTPGQPASISCKSSQSLLYSNGKTYLNWLLQKPGQPPQRLIYLVSNRDSGVPDRFSGSGSGTDFTLKISRVEAEDVGVYYCVQGTHFPQTFGGGTKVEIKR
Question: With B1 as the binder, how does the Kd [1] read?
Answer: 0.813 nM

Question: What about the koff [1] of the same binder?
Answer: 4.13e-05 s⁻¹

Question: And the kon [1]?
Answer: 50800 M⁻¹ s⁻¹

Question: And the fold higher affinity than HzKR127-3 [2]?
Answer: 4.9 fold
